Patent publication US20240109974A1 (SHANDONG SIMCERE BIOPHARMACEUTICAL, published 2024)

T1: human TNFR2 on the surface of CHO-TNFR2 cells (human, UniProt P20333 23-461)
T1 construct: whole, on cells
T1 sequence (looked up): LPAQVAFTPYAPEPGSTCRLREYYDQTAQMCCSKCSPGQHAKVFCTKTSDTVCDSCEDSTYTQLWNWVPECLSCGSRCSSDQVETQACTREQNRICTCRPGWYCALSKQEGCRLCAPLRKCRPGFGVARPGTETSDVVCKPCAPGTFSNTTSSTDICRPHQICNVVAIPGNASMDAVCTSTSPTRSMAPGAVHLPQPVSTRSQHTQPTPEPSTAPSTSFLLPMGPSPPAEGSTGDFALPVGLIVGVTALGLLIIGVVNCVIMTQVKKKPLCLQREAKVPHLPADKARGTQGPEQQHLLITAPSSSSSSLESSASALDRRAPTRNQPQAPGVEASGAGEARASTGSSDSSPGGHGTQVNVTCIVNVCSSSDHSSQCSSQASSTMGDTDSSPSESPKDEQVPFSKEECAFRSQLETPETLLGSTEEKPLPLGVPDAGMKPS

T2: human TNFR2 (Novoprotein, Cat #C830) (human, UniProt P20333 23-257, limits assumed)
T2 construct: construct not described; also called human TNFR2 protein
T2 sequence (looked up): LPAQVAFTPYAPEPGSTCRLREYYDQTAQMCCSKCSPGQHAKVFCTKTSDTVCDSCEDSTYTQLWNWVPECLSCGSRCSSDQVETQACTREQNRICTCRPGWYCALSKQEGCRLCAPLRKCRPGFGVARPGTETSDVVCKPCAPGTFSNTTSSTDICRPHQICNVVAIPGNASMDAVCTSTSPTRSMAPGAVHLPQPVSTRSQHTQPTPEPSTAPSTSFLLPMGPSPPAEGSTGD


Assays:
[1] = target: T1, human TNFR2 on the surface of CHO-TNFR2 …; assay: flow cytometry on CHO-TNFR2 cells; area under the MFI fold curve
Description: (§1) The transfected full-length plasmid of human TNFR2 was purchased from Sino Biological (Cat #HG10417-UT, NCBI Ref Seq: NM_001066.2). The experiment was conducted at a cell density within 80%. The cell medium was discarded; the cells were rinsed with PBS, and digested with 1 ml trypsin for 2 minutes; the digestion was stopped with a Ham's F12 complete medium containing 10% FBS, and then a cell suspension was made. The cell suspension was counted, and then an appropriate amount of cell suspension was centrifuged at 350×g; the supernatant was discarded; a corresponding volume of blocking solution (10% FBS+PBS) at a density of 1×10⁷ cells/ml was added to resuspend the cells, and the mixture was incubated at 4° C. for 30 minutes. After the incubation, the mixture was centrifuged at 350×g to remove the supernatant, and the cells were resuspended in a staining buffer (2% FBS+PBS) to a density of 2×10⁶ cells/ml, and spread onto a 96-well plate, with 50 μl of cell suspension added to each well for later use. The antibody was diluted with PBS for 10-fold gradient dilution from the highest concentration of 20 μg/m (twice the concentration); the diluted antibody was added to the well containing 50 μl of cell suspension, and placed on a microplate shaker for shaking at 500 rpm for 1 minute, so that the antibody was fully mixed with the cells; the mixture was incubated at 4° C. for 1 h. After the incubation, the cells were washed twice with the staining buffer, with 100 μl per well, and centrifuged at 350-g for 5 minutes, and the supernatant was discarded. The PE goat anti-Human IgG Fc antibody (ebioscience, Cat #12-4998-82) was diluted 250-fold with the staining buffer, with a volume of 100 μl per well added to the washed cell wells; the mixture was mixed evenly, and stained at 4° C. for 30 minutes. After the staining, similarly, the cells were washed twice with the staining buffer; finally, the cells were resuspended in 200 μl of staining buffer; signals were detected by a flow cytometer (Thermo Attune NxT). The stronger the signal, the stronger the binding ability of an antibody to TNFR2. The binding curve of an antibody was drawn with antibody concentration as the abscissa and corresponding mean fluorescence intensity (MFI) fold as the ordinate, and fitted with four parameters (GraphPad Prism9) to calculate the EC50 value.

[2] = target: T1, human TNFR2 on the surface of CHO-TNFR2 …; assay: flow cytometry on CHO-TNFR2 cells
Description: as §1

[3] = target: T2, human TNFR2 (Novoprotein, Cat #C830); assay: competition ELISA, competitor human TNFα-Biotin; area under the OD curve
Description: 1 μg/ml human TNFR2 (Novoprotein, Cat #C830) was pre-coated with 100 μl/well […] in an ELISA plate. All the test TNFR2 antibodies were subjected to 2.5-fold gradient dilution from the highest concentration of 30 μg/ml; the diluted antibodies were mixed with 15 ng/ml human TNFα-Biotin (Acro Biosystem, Cat #TNA-H82E3) in equal volume, respectively; the resulting mixture was added to the ELISA plate at 100 μl/well, and incubated with shaking at room temperature for 2.0 hours. The plate was washed, and then a Streptavidin-HRP working solution (diluted at 1:10000) was added at 100 μl/well, and the mixture was incubated with shaking at room temperature for 40 minutes. The plate was washed again, and then the substrate TMB of HRP was added to develop colour. A stop solution was added to stop the reaction, and then a microplate reader (MD 13) was used to read the absorbance value. The inhibitory curve of an antibody was drawn with antibody concentration as the abscissa and corresponding OD value as the ordinate, and fitted with four parameters (GraphPad Prism9) to calculate the IC50 value. The smaller the IC50 value, the stronger the ability of an antibody to inhibit the binding of human TNFα to human TNFR2. The blocking effect of a humanized antibody was normalized to its corresponding human-murine chimeric antibody WT. The higher the percentage value, the better the inhibitory effect of the humanized antibody.

Binder	AUC [1]	EC50 [2] [ng/mL]	AUC [3]
219-Hu3 (antibody, V domains shown, also called VH5 + VL5) VH: QVQLVQSGAEVKKPGSSVKVSCKASGYSFTNYWMNWVRQAPGQGLEWMGMIHPSDTETRLNQNFKDRVTITADKSTSTAYMELSSLRSEDTAVYYCARGEGLGAARSVSMDYWGQGTLVTVSS VL: DIQMTQSPSSLSASVGDRVTITCRASQDISNYLNWYQQKPDGTVKLLIYYTAILHSGVPSRFSGSGSGTDYSLTISSLQPEDFATYFCQQGNTLPWTFGQGTKVEIK	497	0.018	8.16
219-Hu1 (antibody, V domains shown, also called VH3 + VL5) VH: QVQLVQSGAEVKKPGASVKVSCKASGYSFTNYWMNWVRQAPGQRLEWMGMIHPSDTETRLNQNFKDRVTITRDTSASTAYMELSSLRSEDTAVYYCARGEGLGAARSVSMDYWGQGTLVTVSS VL: DIQMTQSPSSLSASVGDRVTITCRASQDISNYLNWYQQKPDGTVKLLIYYTAILHSGVPSRFSGSGSGTDYSLTISSLQPEDFATYFCQQGNTLPWTFGQGTKVEIK	565	0.026	7.92
001-WT (antibody, V domains shown, Human-murine chimeric wild-type molecule; also called human-murine chimeric antibody WT of #001) VH: EVQLQESGGGLVQPGGSLNLSCAASGFAFSTYDLSWVRQTPEKRLEWVAYINNGGISTYYSDTVKGRFTISRDNAKNTLYLQMSSLKSEDTAMYYCVRGPFYGSANYFDYWGQGTTVTVSS VL: EIVMTQSPASLSLSVGETVTITCRTSESIYSNLPWYQQKQGKSPQLLVYDATKLAEGVPSRFSGSESGTQYSLKINSLQSEDFGTYYCQHFWVTPWTFGGGTKLEIK	490	0.035	–
001-Hu5 (antibody, V domains shown, Humanized form of #001; also called VH1 + VL4) VH: EVQLVESGGGLVQPGGSLRLSCAASGFAFSTYDLSWVRQAPGKGLEWVAYINNGGISTYYSDTVKGRFTISRDNAKNTLYLQMNSLRAEDTAVYYCVRGPFYGSANYFDYWGQGTLVTVSS VL: DIQMTQSPSSLSASVGDRVTITCRTSESIYSNLPWYQQKPGKSPKLLVYDATKLAEGVPSRFSGSGSGTDYTLTISSLQPEDFATYYCQHFWVTPWTFGQGTKVEIK	431	0.029	8.02
001-Hu2 (antibody, V domains shown, Humanized form of #001; also called VH2 + VL2) VH: EVQLVESGGGLVQPGGSLRLSCAASGFAFSTYDLSWVRQAPGKGLEWVAYINNGGISTYYSDTVKGRFTISRDNAKNSLYLQMNSLRAEDTAVYYCVRGPFYGSANYFDYWGQGTLVTVSS VL: DIQMTQSPSSLSASVGDRVTITCRTSESIYSNLPWYQQKPGKSPKLLIYDATKLAEGVPSRFSGSGSGTDFTLTISSLQPEDFATYYCQHFWVTPWTFGQGTKVEIK	433	0.073	8.1
001-Hu1 (antibody, V domains shown, Humanized form of #001; also called VH1 + VL1) VH: EVQLVESGGGLVQPGGSLRLSCAASGFAFSTYDLSWVRQAPGKGLEWVAYINNGGISTYYSDTVKGRFTISRDNAKNTLYLQMNSLRAEDTAVYYCVRGPFYGSANYFDYWGQGTLVTVSS VL: DIQMTQSPSSLSASVGDRVTITCRTSESIYSNLPWYQQKPGKAPKLLLYDATKLAEGVPSRFSGSGSGTDYTLTISSLQPEDFATYYCQHFWVTPWTFGQGTKVEIK	458	0.045	7.63
001-Hu4 (antibody, V domains shown, Humanized form of #001; also called VH2 + VL4) VH: EVQLVESGGGLVQPGGSLRLSCAASGFAFSTYDLSWVRQAPGKGLEWVAYINNGGISTYYSDTVKGRFTISRDNAKNSLYLQMNSLRAEDTAVYYCVRGPFYGSANYFDYWGQGTLVTVSS VL: DIQMTQSPSSLSASVGDRVTITCRTSESIYSNLPWYQQKPGKSPKLLVYDATKLAEGVPSRFSGSGSGTDYTLTISSLQPEDFATYYCQHFWVTPWTFGQGTKVEIK	452	0.027	7.86
001-Hu3 (antibody, V domains shown, Humanized form of #001; also called VH1 + VL3) VH: EVQLVESGGGLVQPGGSLRLSCAASGFAFSTYDLSWVRQAPGKGLEWVAYINNGGISTYYSDTVKGRFTISRDNAKNTLYLQMNSLRAEDTAVYYCVRGPFYGSANYFDYWGQGTLVTVSS VL: DIQMTQSPSSLSASVGDRVTITCRTSESIYSNLPWYQQKPGKAPKLLIYDATKLAEGVPSRFSGSGSGTDYTLTISSLQPEDFATYYCQHFWVTPWTFGQGTKVEIK	431	0.035	7.87

Continued, values first:

AUC [1]	EC50 [2] [ng/mL]	AUC [3]	Binder
516	0.026	–	219-WT (antibody, V domains shown, Human-murine chimeric wild-type molecule) VH: EVQLQESGAELVRPGASVKLSCKASGYSFTNYWMNWVKQRPGQGLEWIGMIHPSDTETRLNQNFKDKATLTVDKSSSTSYMQLSSPTSEDSAVYYCARGEGLGAARSVSMDYWGQGTTVTVSS VL: DILMTQSPSSLSASLGDRVTISCRASQDISNYLNWYQQKPDGTVKVLIYYTAILHSGVPSRFSGSGSGTDYSLTISNLEQEDIATYFCQQGNTLPWTFGGGTKLEIK
534	0.027	7.82	219-Hu2 (antibody, V domains shown, also called VH4 + VL5) VH: QVQLVQSGAEVKKPGSSVKVSCKASGYSFTNYWMNWVRQAPGQGLEWMGMIHPSDTETRLNQNFKDKATITADKSTSTAYMELSSLRSEDTAVYYCARGEGLGAARSVSMDYWGQGTLVTVSS VL: DIQMTQSPSSLSASVGDRVTITCRASQDISNYLNWYQQKPDGTVKLLIYYTAILHSGVPSRFSGSGSGTDYSLTISSLQPEDFATYFCQQGNTLPWTFGQGTKVEIK
493	0.018	7.66	219-Hu4 (antibody, V domains shown, also called VH6 + VL5) VH: QVQLVQSGAEVKKPGSSVKVSCKASGYSFTNYWMNWVKQAPGQGLEWIGMIHPSDTETRLNQNFKDKATLTVDKSTSTAYMELSSLRSEDTAVYYCARGEGLGAARSVSMDYWGQGTLVTVSS VL: DIQMTQSPSSLSASVGDRVTITCRASQDISNYLNWYQQKPDGTVKLLIYYTAILHSGVPSRFSGSGSGTDYSLTISSLQPEDFATYFCQQGNTLPWTFGQGTKVEIK
667	0.04	–	224-WT (antibody, V domains shown, Human-murine chimeric wild-type molecule; also called human-murine chimeric antibody WT of #224) VH: EVQLQESGPEIVKPGASVKLSCTASGFNNKDIYMHWVKQRPEQGLEWIGRIDPATGNTKHDPKFQDKATLSSDTSSNTAYLQFSSLTSEDTAVYYCAHSPYGDFGAMDYWGQGTTVTVSS VL: DIQMTQSPAIMSASLGERVTMTCTASSSVSSNYLHWYQQKPGSSPKLWIYSTSNLPSGVPARFSGSGSGTSYSLTISSMEAEDAATYYCHQYHRSPWTFGGGTKLEIK
